In test [1] the target is T1, Keap1 (Kelch 1-6 domains, AA 314-611) (Homo sapiens (Human), UniProt Q14145 321-611).
T1 construct: Kelch domain expressed in E. coli with an N-terminal His tag and TEV site; the same preparation is described for SPR; also called Kelch-like ECH-associated protein 1; Kelch domain of Keap1
The test can be described thus: SPR, captured Fab, Keap1 analyte.
Description: Surface plasmon resonance (SPR) experiments were carried out on a Biacore 3000 system (GE Healthcare) and detailed experimental details are given below. Briefly, supernatant containing expressed Fab (or sham transfected supernatant control) was injected over immobilized anti-human F(ab′)₂ polyclonal on a CM5 chip. A second injection of a Keap1 titration or a zero analyte control allowed association and dissociation kinetics to be monitored. Chip regeneration completed each sensorgram cycle. Sensorgrams were corrected for baseline drift, caused by slow dissociation of captured Fab, by subtraction of an adjacent zero analyte control cycle. […] Specificity of Fab binding to Keap1 was assessed by the same protocol by titration of an Nrf2 peptide analogue against a constant concentration of Keap1.
Surface plasmon resonance (SPR) experiments were carried out on a Biacore 3000 system (GE Healthcare) using reagents from the same manufacturer. […] Initial binding of Keap1 to expressed Fabs was assessed by injecting 50 μl supernatant, diluted 1 in 5 in running buffer, over the reference and anti-F(ab′)₂ flow cells at a flow rate of 10 μl/min, followed by a 150 μl injection of 0, 500 or 5000 nM Keap1 in running buffer at a flow rate of 30 μl/min.

Test [2] deals with T1, Keap1 (Kelch 1-6 domains, AA 314-611). The test can be described thus: Biacore competition assay (FIG. 33).
Description: (§1) Surface plasmon resonance (SPR) experiments were carried out on a Biacore 3000 system (GE Healthcare) using reagents from the same manufacturer. […] The latter was immobilised to the activated carboxymethyl dextran surface via amine coupling as follows: a fresh mixture of 50 mM N-hydroxysuccimide and 200 mM 1-ethyl-3-(3-dimethylaminopropyl)-carbodiimide was injected for 5 minutes at a flow rate of 10 μl/min, followed by 50 μg/ml anti-human F(ab′)₂ in 10 mM acetate pH 5.0 buffer for 5 min at the same flow rate. Finally the surface was deactivated with a 10 minute pulse of 1 M ethanolamine.HCl pH 8.5. […] Initial binding of Keap1 to expressed Fabs was assessed by injecting 50 μl supernatant, diluted 1 in 5 in running buffer, over the reference and anti-F(ab′)₂ flow cells at a flow rate of 10 μl/min, followed by a 150 μl injection of 0, 500 or 5000 nM Keap1 in running buffer at a flow rate of 30 μl/min. […] Association and dissociation kinetics of Keap1 binding to captured Fabs were determined by the same protocol over at least 8 values of the following concentrations: 75, 100, 150, 250, 350, 500, 750, 1000, 1500, 2500, 3500 and 5000 nM. Zero Keap1 controls were interspersed between the former cycles in order to correct for baseline drift and sham transfected supernatant was assessed at each Keap1 concentration in order to determine and correct for non-specific binding of Keap1.
Test [3] shares this target. The test can be described thus: Biacore competition assay, % inhibition against [Ab] M, fitted with log concentration vs normalized response/variable slope; neither the sheet nor the text names the surface-bound partner.
Description: as §1
Test [4] has as its target T2, TGFβ1 (UniProt P01137 279-390).
T2 construct: also called TGFb1
The test can be described thus: SPR (Biacore).

For test [5], the target named is T3, TGFβ3 (UniProt P10600 301-412).
T3 construct: also called TGFb3
T3 sequence (looked up): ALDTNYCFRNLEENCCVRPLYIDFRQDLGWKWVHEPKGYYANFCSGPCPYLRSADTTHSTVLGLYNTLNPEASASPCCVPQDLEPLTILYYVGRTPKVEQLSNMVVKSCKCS
The test can be described thus: SPR (Biacore).

The target of test [6] is T2, TGFβ1. The test can be described thus: cell-based or functional assay.
For a further test, the target named is T4, TGFβ2 (UniProt P61812 303-414).
T4 sequence (looked up): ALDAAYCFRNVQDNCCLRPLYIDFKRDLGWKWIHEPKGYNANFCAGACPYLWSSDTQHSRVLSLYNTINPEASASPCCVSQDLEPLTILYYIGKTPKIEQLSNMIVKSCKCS
The test can be described thus: cell-based or functional assay.

Test [7] has as its target T3, TGFβ3. The test can be described thus: cell-based or functional assay.
The target in test [8] is T2, TGFβ1. The test can be described thus: SPR (Biacore), Fab immobilized on the chip.
The target of test [9] is T3, TGFβ3. The test can be described thus: SPR (Biacore), Fab immobilized on the chip.

Where a chain is given by its changes, count along the chain named.

T2 sequence (P01137 279-390 limits assumed): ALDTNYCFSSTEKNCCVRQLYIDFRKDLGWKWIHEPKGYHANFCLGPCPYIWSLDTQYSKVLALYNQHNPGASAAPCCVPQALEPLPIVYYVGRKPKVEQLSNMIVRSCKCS
T1 sequence (Q14145 other isoform, or with tags, fused parts or gaps limits assumed): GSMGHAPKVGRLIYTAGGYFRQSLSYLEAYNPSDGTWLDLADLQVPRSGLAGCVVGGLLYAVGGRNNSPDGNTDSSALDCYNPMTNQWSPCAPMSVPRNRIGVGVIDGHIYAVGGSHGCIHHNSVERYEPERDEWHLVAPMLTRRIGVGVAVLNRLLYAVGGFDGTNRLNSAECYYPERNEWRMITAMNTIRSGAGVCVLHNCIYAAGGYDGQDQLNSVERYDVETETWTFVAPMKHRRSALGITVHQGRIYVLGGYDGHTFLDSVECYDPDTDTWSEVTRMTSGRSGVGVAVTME

B1: G56 Fab (Fab, V domains shown)
VH: EVQLVESGGGLIRPGGSLRLSCKGSGFIFENFGFGWVRQGPGKGLEWVSGTNWNGGDSRYGDSVKGRFTISRDNSNNFVYLQMNSLRPEDTAIYYCARGTDYTIDETGERAQGSGTFWYFDVWGRGTLVTVSS
VL: EIVLTQSPATLSVSPGERATLSCRASQNVHPRYFAWYQQKRGQSPRLLIHSGSTRAAGIADRFSGGGSGMHFTLTITRVEPEDFAVYFCQQYGGSPYTFGQGTRVELR
notes: Scaffold 3U4B
On to B1, for which the “Fraction of Fab binding sites occupied @ 500 nM Keap1” value in test [1] was found to be 0.023 fraction.

B2: G56.1 Fab (Fab, V domains shown)
VH: B1 VH with R59Q
VL: B1 VL with Q27R
notes: Scaffold 3U4B
In the case of B2, the “Fraction of Fab binding sites occupied @ 500 nM Keap1” value in [1] stood at 0.027 fraction.

B3: LS146-scFv (scFv)
scFv: EVQLVESGGGLVQPGGSLRLSCAASGFAISASSIHWVRQAPGKCLEWVASIDPETGETLYAKSVAGRFTISADTSKNTAYLQMNSLRAEDTAVYYCARAYAGDGVYYADVWGQGTLVTVSSGGGGSGGGGSGGGGSGGGGSDIQMTQSPSSLSASVGDRVTITCRASQSVSSAVAWYQQKPGKAPKLLIYSASSLYSGVPSRFSGSRSGTDFTLTISSLQPEDFATYYCQQSYSFPSTFGCGTKVEIKRTENLYFQ
notes: VH-(Gly4Ser)4-VL followed by a TEV site and His10 tag; also called LS146 formatted as a single chain Fv; scFv-LS146
On to B3, for which the “fold lower potency than its Fab form (LS146 Fab)” value in [2] was 3 fold. The molecule further yielded an IC50 in test [3] of 79 nM.

B4: Fab design 186 (Fab, V domains shown)
VH: EVQLVQSGAEVKKPGESLKISCKGSGYSFTAYWISWVRQMPGKGLEWMGRIIPSVSITNYSPSFQGHVTISADKAISTAYLQWSSLKASDTAMYYCARLLMQGAMLTFDSWGQGTLVT
VL: DIQMTQSPSSLSASVGDRVTITCRASQSIGLALAWYQQKPGKAPKLLIYAASSLQSGVPSRFSGSGSGTDFTLTISSLQPEDFATYYCQQGNTLSYTFGQGTKVEIKR
notes: Fab; Scaffold 3NAC
In the case of B4, the binding result with TGFβ1 [4] and in the test with TGFβ3 [5] was “no binding” throughout.

B5: Fab184 (Fab, V domains shown)
VH: QVQLQQSGPELVRPGVSVKISCKGSGYTFIAEMLHWVKQSHAESLEWIGLIIPAVGITYYNQKFKDKATMTVDIASSTAYLELARLTSEDSAIYYCARSWAEGLFFDYWGQGTLVT
VL: DIVMTQTPKFLLVSAGDKVTITCKASQSVSNALTWYQQKPGQSPKLLIYYASNRYTGVPDRFTGSGYGTDFTFTISTVQAEDLAVYFCQQDYGAPPTFGGGTKVEIKR
notes: Fab; Scaffold 3MXW; also called designed Fab
B5: the “TGFβ1 IC50 in the reporter gene assay (n = 2)” value in the test with TGFβ1 [6] was determined as 52.8 nM. In addition, the “TGFβ2 IC50 in the reporter gene assay (n = 2)” value with TGFβ2 came out at 36.8 nM. Further, the “TGFβ3 IC50 in the reporter gene assay (n = 2)” value with TGFβ3 [7] came to 10.6 nM. Besides, the Kd with TGFβ1 [8] was 106 nM; with TGFβ3 [9] it was 32.9 nM.
